Target: albumin (on albumin-functionalized agarose resin) (UniProt P07724)
Experiment: pull-down; AF647-labelled eOD or amph-eOD incubated with albumin-functionalized agarose resin for 2 hours at 37°C; resin separated and protein remaining in solution measured

Chain of UniProt P07724 (P07724 25-608): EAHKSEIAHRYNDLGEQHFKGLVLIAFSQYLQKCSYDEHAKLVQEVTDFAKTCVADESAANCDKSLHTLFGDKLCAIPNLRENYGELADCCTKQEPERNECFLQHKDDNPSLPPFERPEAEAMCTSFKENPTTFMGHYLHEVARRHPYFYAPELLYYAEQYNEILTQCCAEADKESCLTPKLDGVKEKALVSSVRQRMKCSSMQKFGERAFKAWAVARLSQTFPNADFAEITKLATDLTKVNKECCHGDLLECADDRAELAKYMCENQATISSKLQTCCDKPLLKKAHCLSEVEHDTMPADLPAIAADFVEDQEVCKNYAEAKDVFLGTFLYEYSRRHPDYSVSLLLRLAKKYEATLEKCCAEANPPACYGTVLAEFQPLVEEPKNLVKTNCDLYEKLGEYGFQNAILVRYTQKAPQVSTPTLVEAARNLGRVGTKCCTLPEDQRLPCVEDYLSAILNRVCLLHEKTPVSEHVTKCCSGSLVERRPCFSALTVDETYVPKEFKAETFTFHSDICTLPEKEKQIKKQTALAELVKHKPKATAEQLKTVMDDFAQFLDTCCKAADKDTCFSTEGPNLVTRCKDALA

## amph-eOD (eOD-GT8 with N-terminal cysteine and C-terminal PADRE, conjugated to PEG2K-DSPE)
  percent of added protein bound to the resin: 60%
